Assay results reported in the RNAGym collection of RNA variant scans (doi:10.1073/pnas.2313332121).
This sample holds only a part of the variants without activity.

B1: TPR 5TU (parent)
chain: GGAUCUUCUCGAUCUAACAAAAAAGACAAAUCUGCCACAAAGCUUGAGAGCAUCUUCGGAUGCAGAGGCGGCAGCCUUCGGUGGCGCGAUAGCGCCAACGUUCUCAACUAUGACACGCAAAACGCGUGCUCCGUUGAAUGGAGUUUAUCAUG

Variants of: B1
Experiment: polymerase ribozyme fitness, log enrichment relative to wild type (log ratio); higher = more active; in vitro selection for triplet polymerase activity
Procedure, shortened: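 Frozen incubation at −7 °C formed the core of a single, triplicate in vitro selection round applied to PCR-built, transcribed mutant libraries of each subunit of a heterodimeric triplet polymerase ribozyme. Extended constructs were gel-excised, captured with streptavidin beads and amplified by RT-PCR, and input and output libraries were Illumina-sequenced with a filter of ≥10 input reads and ≥1 read per output. Fitness is the logarithm of genotype enrichment relative to wild-type enrichment, with inverse-variance-weighted replicate averaging, and the logarithm is base 2.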

Compared with A22C C51U G84U, A22C A26U U33G G34A U55A A73U U77G G86A G143A is lower in “polymerase ribozyme fitness (log ratio)” value: -2.78 for the first, at most -4.2 for the second.

A21G U31G C38U A66G C93A G124U U144A and A22C C38A U44G C75A G84A G117A U135A U151G cannot be ordered by “polymerase ribozyme fitness (log ratio)” value: at most -4.2 for the first, at most -4.2 for the second.

A22G G84A A91C C103G U104G and A21U A24C U33C G94A A107C cannot be ordered by “polymerase ribozyme fitness (log ratio)” value: at most -4.2 for the first, at most -4.2 for the second.

Compared with A21U G59U C105U C129A, A21G U55A C96U G117A is higher in “polymerase ribozyme fitness (log ratio)” value: -2.46 for the first, 0.86 for the second.

Compared with A22G A23U C35A C75A C95G, A22G C76U is higher in “polymerase ribozyme fitness (log ratio)” value: at most -4.2 for the first, 0.868 for the second.

A21U A49G U55A G84A U104C A137U G140C A150C and A21U C32G C85A cannot be ordered by “polymerase ribozyme fitness (log ratio)” value: at most -4.2 for the first, at most -4.2 for the second.

Compared with A22C C27U G50C G80U U144G, A22C U33G G50C U78A C87A G126A U135A U144G is higher in “polymerase ribozyme fitness (log ratio)” value: at most -4.2 for the first, -3.83 for the second.

A22G C27U A47U U56G C57G U77A C93A G143A and A21U A22G G88A A97G A106C C125U cannot be ordered by “polymerase ribozyme fitness (log ratio)” value: at most -4.2 for the first, at most -4.2 for the second.

Compared with A21U A52G C87U C114U U144G, A22G G50U U56G G58U C76U A122G is lower in “polymerase ribozyme fitness (log ratio)” value: -3.22 for the first, -4.16 for the second.

Compared with A21U A73U C116A U134A G141C A150G, A22G C132U is higher in “polymerase ribozyme fitness (log ratio)” value: at most -4.2 for the first, -0.512 for the second.

Going from A22G C132G to A21U A24C C79U G80C C85U C93U, the “polymerase ribozyme fitness (log ratio)” value falls from -3.69 to at most -4.2.

Compared with A22G G59A, A22G C32U A37G A41C G71A C95U C96G U139C is lower in “polymerase ribozyme fitness (log ratio)” value: -0.246 for the first, at most -4.2 for the second.

First: A22C G58C G70U U134C
Second: A21G G25U G50U C54U A73G C93A C108G C129G U135G
The “polymerase ribozyme fitness (log ratio)” value of the first is higher: -3.68 for the first, at most -4.2 for the second.

First: A21U U135A
Second: A22C G34C U55G A91C G92U
The “polymerase ribozyme fitness (log ratio)” value of the first is higher: -1.24 for the first, at most -4.2 for the second.

Compared with A21U A40U C85U G141A, A21U G25A A89C is lower in “polymerase ribozyme fitness (log ratio)” value: 0.05 for the first, -3.68 for the second.

A22C U33C G88A A97C C131G and A21U A24U A64C U101G A110G A138C U145A cannot be ordered by “polymerase ribozyme fitness (log ratio)” value: at most -4.2 for the first, at most -4.2 for the second.

First: A21U G59C G126U
Second: A22C C38U G58U A60C C85A C87U G133A G140U
The “polymerase ribozyme fitness (log ratio)” value of the first is higher: 0.721 for the first, at most -4.2 for the second.

Going from A22C U55A A97G G143C to A22C U61A G88A A107C A110C C123G G140A, the “polymerase ribozyme fitness (log ratio)” value falls from -3.02 to at most -4.2.

First: A22C A52C G81U
Second: A22C A49C G84C G94U
The “polymerase ribozyme fitness (log ratio)” value of the first is higher: -1.38 for the first, at most -4.2 for the second.

Compared with A21U A26C A39G A40C G50A G68C C72G U111C, A21G C76A G86U C93G U101C A122G is higher in “polymerase ribozyme fitness (log ratio)” value: at most -4.2 for the first, -0.0234 for the second.

Going from A22C A39C U53A G68A A91U U146A to A21G G92C, the “polymerase ribozyme fitness (log ratio)” value rises from at most -4.2 to 0.365.

Compared with A22G U55G C57U G84U C85A, A22G A41C G62U C93A C95U C105A G112U C123G U134C G140A G141U is lower in “polymerase ribozyme fitness (log ratio)” value: -0.696 for the first, at most -4.2 for the second.

First: A22C U53A U56A A73G
Second: A22G A91U C95U U109C A137U
The “polymerase ribozyme fitness (log ratio)” value of the first is higher: -1.97 for the first, at most -4.2 for the second.

Compared with A21U C93U U144C, A21U C85U C131U U145G U151A is lower in “polymerase ribozyme fitness (log ratio)” value: -0.648 for the first, at most -4.2 for the second.

Going from A22C A41C A49C U53A G67U G117A C131A to A21G G68A, the “polymerase ribozyme fitness (log ratio)” value rises from at most -4.2 to -3.89.

A21U C96A A110G C116U U145G and A21U A26G G71A C125U cannot be ordered by “polymerase ribozyme fitness (log ratio)” value: at most -4.2 for the first, at most -4.2 for the second.

Going from A21U U33A A40U G58A C85G A98C A106U G126C to A21U G80U G94A A147U, the “polymerase ribozyme fitness (log ratio)” value rises from at most -4.2 to -0.607.

First: A21U U31C A73G G94U A113U
Second: A22G A29U U77C C85G C95U C103U C114G C125U
The “polymerase ribozyme fitness (log ratio)” value of the first is higher: -3.49 for the first, at most -4.2 for the second.

Going from A22G A106G A122C G124U to A22C A37U U61G C85G A91U U146A, the “polymerase ribozyme fitness (log ratio)” value falls from -0.81 to at most -4.2.

Going from A21G C75U A98G C99G C114U to A21U C69U C96A C129A U135A G143U, the “polymerase ribozyme fitness (log ratio)” value rises from at most -4.2 to -0.753.

A22G G58A A120G C123A C129G and A22C G46C G83C are within 0.2 log units of each other in “polymerase ribozyme fitness (log ratio)” value: -3.06 for the first, -3.01 for the second.

Going from A21U C36A to A22G A52U G84A C123A, the “polymerase ribozyme fitness (log ratio)” value rises from -3.4 to -2.11.

Going from A22C C85U to A22C C85A, the “polymerase ribozyme fitness (log ratio)” value falls from -0.656 to -1.08.

A21U C57A A142U and A21U C96A are within 0.2 log units of each other in “polymerase ribozyme fitness (log ratio)” value: -0.38 for the first, -0.443 for the second.

First: A21U C96G
Second: A22C C63U G67C G84U A98C G128C U144A U151A
The “polymerase ribozyme fitness (log ratio)” value of the first is higher: -0.697 for the first, at most -4.2 for the second.

Compared with A21U U33G A49C G50C C54A U82G G92U, A22C U53G G94A A119G is higher in “polymerase ribozyme fitness (log ratio)” value: at most -4.2 for the first, -1.81 for the second.

A21U C79U C93G and A21U C36A G80A G88A G100U G124C G133A G143C U148A cannot be ordered by “polymerase ribozyme fitness (log ratio)” value: at most -4.2 for the first, at most -4.2 for the second.

Compared with A21G U53A A60U C96U C99G A110G, A22C C27U A52C is higher in “polymerase ribozyme fitness (log ratio)” value: at most -4.2 for the first, -2.64 for the second.

First: A21U G50C
Second: A21U G50U
The “polymerase ribozyme fitness (log ratio)” value of the first is lower: -3.57 for the first, 0.281 for the second.

Going from A21U C36A G86A A98C to A22C U53A C57U G100A A119G A142C G152A, the “polymerase ribozyme fitness (log ratio)” value falls from -4.1 to at most -4.2.

Going from A21U C118U A119G to A22C C85G U109A, the “polymerase ribozyme fitness (log ratio)” value falls from -3.17 to -3.43.

In the case of A21U A26U C57U G84U, the “polymerase ribozyme fitness (log ratio)” value is reported as -3.6.
